The values below come from patent US20240016931A1 (JIANGSU HENGRUI PHARMACEUTICALS, published 2024).

The assay addresses T1, His-tagged human TSLP antigen (huTSLP-his) (human).
T1 construct: Secreted from HEK293E and purified on nickel; whole entry named; also called Human TSLP-his
The assay is described as follows: ELISA, coated huTSLP-his. (In an ELISA, binding on a coated surface is turned into a signal by an enzyme label.)
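Further: binding of antibodies to plate-bound TSLP read as absorbance at 450 nm after TMB colour development, EC50 derived from binding curves.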

Experimental: The plate was incubated at 4° C. overnight. After the liquid was discarded, 5% skim milk (skim milk powder from Brightdairy) blocking solution diluted with PBS was added at 200 μL/well, and the plate was incubated in an incubator at 37° C. for 2 h for blocking. After the blocking, the blocking solution was discarded, and the plate was washed 3 times with a PBST buffer (PBS containing 0.1% (v/v) tween-20, pH 7.4). […] After the incubation, the plate was washed 3 times with PBST. […] After the plate was washed 6 times with PBST, a TMB chromogenic substrate (KPL, 52-00-03) was added at 50 μL/well, and the plate was incubated at room temperature for 10-15 min. Then, 1 M H₂SO₄ was added at 50 μL/well to stop the reaction. The absorbance at 450 nm was read with a NOVOStar microplate reader, and the EC₅₀ values for the binding of the TSLP antibodies to TSLP were calculated.

B1: hu179-09 (antibody, human IgG1, kappa)
heavy: EVQLVQSGAEVKKPGSSVKVSCKASGYTFSNYLIEWVRQAPGQGLEWIGVIDPGNGDTNYNENFKGRATLTADKSTSTAYIELSSLRSEDTAVYYCAREDNTGTAFDYWGQGTTVTVSSASTKGPSVFPLAPSSKSTSGGTAALGCLVKDYFPEPVTVSWNSGALTSGVHTFPAVLQSSGLYSLSSVVTVPSSSLGTQTYICNVNHKPSNTKVDKKVEPKSCDKTHTCPPCPAPELLGGPSVFLFPPKPKDTLYITREPEVTCVVVDVSHEDPEVKFNWYVDGVEVHNAKTKPREEQYNSTYRVVSVLTVLHQDWLNGKEYKCKVSNKALPAPIEKTISKAKGQPREPQVYTLPPSRDELTKNQVSLTCLVKGFYPSDIAVEWESNGQPENNYKTTPPVLDSDGSFFLYSKLTVDKSRWQQGNVFSCSVMHEALHNHYTQKSLSLSPGK
light: SIVMTQTPLSLSVTPGQPASISCKASQSVSSDVTWYLQKPGQSPQLLIYYVSNHYTGVPDRFSGSGSGTDFTLKISRVEAEDVGVYYCQQHHRFPLTFGQGTKLEIKRTVAAPSVFIFPPSDEQLKSGTASVVCLLNNFYPREAKVQWKVDNALQSGNSQESVTEQDSKDSTYSLSSTLTLSKADYEKHKVYACEVTHQGLSSPVTKSFNRGEC
notes: IgG1-YTE, kappa
Molecule B1 had an EC50 of 0.157 nM.

B2: hu179-10 (antibody, human IgG1, kappa, V domains shown)
VH: EVQLVQSGAEVKKPGSSVKVSCKASGYTFSNYLIEWVRQAPGQGLEWIGVIDPGNGDTNYNENFKGRATLTADKSTSTAYIELSSLRSEDTAVYYCAREDNTGTAFDYWGQGTTVTVSS
VL: SIVMTQTPLSLSVTPGQPASISCKASQSVSSDVTWYLQKPGQSPQLLIYYVSNHYTGVPDRFSGSGSGTDFTFKISRVEAEDVGVYYCQQHHRFPLTFGQGTKLEIKR
notes: IgG1-YTE, kappa
Consider B2, for which a half-maximal response (EC50) required 0.19 nM.

B3: hu179-11 (antibody, human IgG1, kappa, V domains shown)
VH: EVQLVQSGAEVKKPGSSVKVSCKASGYTFSNYLIEWVRQAPGQGLEWIGVIDPGNGDTNYNENFKGRATLTADKSTSTAYIELSSLRSEDTAVYYCAREDNTGTAFDYWGQGTTVTVSS
VL: SIVMTQTPLSLSVTPGQPASISCKASQSVSSDVTWYLQKPGQSPQLLIYYVSNHYTGVPDRFSGSGYGTDFTLKISRVEAEDVGVYYCQQHHRFPLTFGQGTKLEIKR
notes: IgG1-YTE, kappa
As to B3, the EC50 was 0.137 nM.

B4: hu179-16 (antibody, human IgG1, kappa)
heavy: EVQLVQSGAEVKKPGSSVKVSCKASGYAFSNYLIEWVRQAPGQGLEWIGVIDPGNGDTNYNENFKGRATLTADKSTSTAYMELSSLRSEDTAVYYCAREDNTGTAFDYWGQGTTVTVSSASTKGPSVFPLAPSSKSTSGGTAALGCLVKDYFPEPVTVSWNSGALTSGVHTFPAVLQSSGLYSLSSVVTVPSSSLGTQTYICNVNHKPSNTKVDKKVEPKSCDKTHTCPPCPAPELLGGPSVFLFPPKPKDTLYITREPEVTCVVVDVSHEDPEVKFNWYVDGVEVHNAKTKPREEQYNSTYRVVSVLTVLHQDWLNGKEYKCKVSNKALPAPIEKTISKAKGQPREPQVYTLPPSRDELTKNQVSLTCLVKGFYPSDIAVEWESNGQPENNYKTTPPVLDSDGSFFLYSKLTVDKSRWQQGNVFSCSVMHEALHNHYTQKSLSLSPGK
light: DIVMTQTPLSLSVTPGQPASISCKASQSVSSDVTWYLQKPGQSPQLLIYYVSNHYTGVPDRFSGSGSGTDFTLKISRVEAEDVGVYYCQQHHRFPLTFGQGTKLEIKRTVAAPSVFIFPPSDEQLKSGTASVVCLLNNFYPREAKVQWKVDNALQSGNSQESVTEQDSKDSTYSLSSTLTLSKADYEKHKVYACEVTHQGLSSPVTKSFNRGEC
notes: IgG1-YTE, kappa
B4 yielded an EC50 of 0.229 nM.

B5: hu179-08 (antibody, human IgG1, kappa)
heavy: EVQLVQSGAEVKKPGSSVKVSCKASGYTFSNYLIEWVRQAPGQGLEWIGVIDPGNGDTNYNENFKGRATLTADKSTSTAYIELSSLRSEDTAVYYCAREDNTGTAFDYWGQGTTVTVSSASTKGPSVFPLAPSSKSTSGGTAALGCLVKDYFPEPVTVSWNSGALTSGVHTFPAVLQSSGLYSLSSVVTVPSSSLGTQTYICNVNHKPSNTKVDKKVEPKSCDKTHTCPPCPAPELLGGPSVFLFPPKPKDTLYITREPEVTCVVVDVSHEDPEVKFNWYVDGVEVHNAKTKPREEQYNSTYRVVSVLTVLHQDWLNGKEYKCKVSNKALPAPIEKTISKAKGQPREPQVYTLPPSRDELTKNQVSLTCLVKGFYPSDIAVEWESNGQPENNYKTTPPVLDSDGSFFLYSKLTVDKSRWQQGNVFSCSVMHEALHNHYTQKSLSLSPGK
light: DIVMTQTPLSLSVTPGQPASISCKASQSVSSDVTWYLQKPGQSPQLLIYYVSNHYTGVPDRFSGSGSGTDFTLKISRVEAEDVGVYYCQQHHRFPLTFGQGTKLEIKRTVAAPSVFIFPPSDEQLKSGTASVVCLLNNFYPREAKVQWKVDNALQSGNSQESVTEQDSKDSTYSLSSTLTLSKADYEKHKVYACEVTHQGLSSPVTKSFNRGEC
notes: IgG1-YTE, kappa
B5 came in with an EC50 of 0.162 nM.

B6: hu3-06 (antibody, human IgG1, kappa, V domains shown)
VH: EVQLVQSGAEVKKPGASVKVSCKASGYTFTDDYMNWVRQAPGQRLEWMGIISPYNGGTSYNQKFKGRVTLTVDKSASTAYMELSSLRSEDTAVYYCAREDYDYDGYAMDHWGQGTTVTVSS
VL: EIVLTQSPATLSLSPGERATLSCRASSSVSYMHWYQQKPGQAPRPWIYATSNLASGVPARFSGSGSGTDYTLTISRLEPEDFAVYYCQQWSSNRTFGGGTKVEIKR
notes: IgG1-YTE, kappa
In turn, B6 gave an EC50 of 0.594 nM.

B7: hu3-01 (antibody, human IgG1, kappa, V domains shown)
VH: EVQLVQSGAEVKKPGASVKVSCKASGYTFTDDYMNWVRQAPGQRLEWMGIISPYNGGTSYNQKFKGRVTITRDTSASTAYMELSSLRSEDTAVYYCAREDYDYDGYAMDHWGQGTTVTVSS
VL: EIVLTQSPATLSLSPGERATLSCRASSSVSYMHWYQQKPGQAPRPLIYATSNLASGIPARFSGSGSGTDYTLTISRLEPEDFAVYYCQQWSSNRTFGGGTKVEIKR
notes: IgG1-YTE, kappa
Regarding B7, the EC50 came to 0.849 nM.

B8: hu3-07 (antibody, human IgG1, kappa, V domains shown)
VH: EVQLVQSGAEVKKPGASVKVSCKASGYTFTDDYMNWVRQAPGQRLEWMGIISPYNGGTSYNQKFKGRVTLTVDKSASTAYMELSSLRSEDTAVYYCAREDYDYDGYAMDHWGQGTTVTVSS
VL: EIVLTQSPATLSLSPGERATLSCRASSSVSYMHWYQQKPGQAPRPWIYATSNLASGVPARFSGSGSGTSYTLTISRLEPEDFAVYYCQQWSSNRTFGGGTKVEIKR
notes: IgG1-YTE, kappa
Regarding B8, the EC50 was determined as 0.385 nM.

B9: hu3-05 (antibody, human IgG1, kappa, V domains shown)
VH: EVQLVQSGAEVKKPGASVKVSCKASGYTFTDDYMNWVRQAPGQRLEWMGIISPYNGGTSYNQKFKGRVTLTVDKSASTAYMELSSLRSEDTAVYYCAREDYDYDGYAMDHWGQGTTVTVSS
VL: EIVLTQSPATLSLSPGERATLSCRASSSVSYMHWYQQKPGQAPRPLIYATSNLASGIPARFSGSGSGTDYTLTISRLEPEDFAVYYCQQWSSNRTFGGGTKVEIKR
notes: IgG1-YTE, kappa
Molecule B9 gave an EC50 of 0.517 nM.

B10: hu3-03 (antibody, human IgG1, kappa, V domains shown)
VH: EVQLVQSGAEVKKPGASVKVSCKASGYTFTDDYMNWVRQAPGQRLEWMGIISPYNGGTSYNQKFKGRVTITRDTSASTAYMELSSLRSEDTAVYYCAREDYDYDGYAMDHWGQGTTVTVSS
VL: EIVLTQSPATLSLSPGERATLSCRASSSVSYMHWYQQKPGQAPRPWIYATSNLASGVPARFSGSGSGTSYTLTISRLEPEDFAVYYCQQWSSNRTFGGGTKVEIKR
notes: IgG1-YTE, kappa
B10 came in with an EC50 of 0.554 nM.

B11: hu3-08 (antibody, human IgG1, kappa, V domains shown)
VH: EVQLVQSGAEVKKPGASVKVSCKASGYTFTDDYMNWVKQAPGQRLEWIGIISPYNGGTSYNQKFKGRATLTVDKSASTAYMELSSLRSEDTAVYYCAREDYDYDGYAMDHWGQGTTVTVSS
VL: EIVLTQSPATLSLSPGERATLSCRASSSVSYMHWYQQKPGQAPRPLIYATSNLASGIPARFSGSGSGTDYTLTISRLEPEDFAVYYCQQWSSNRTFGGGTKVEIKR
notes: IgG1-YTE, kappa
For B11, the midpoint of the response, the EC50, lay at 0.469 nM.

B12: hu3-04 (antibody, human IgG1, kappa, V domains shown)
VH: EVQLVQSGAEVKKPGASVKVSCKASGYTFTDDYMNWVRQAPGQRLEWMGIISPYNGGTSYNQKFKGRVTLTVDKSASTAYMELSSLRSEDTAVYYCAREDYDYDGYAMDHWGQGTTVTVSS
VL: EIVLTQSPATLSLSPGERATLSCRASSSVSYMHWYQQKPGQAPRLLIYATSNLASGIPARFSGSGSGTDFTLTISRLEPEDFAVYYCQQWSSNRTFGGGTKVEIKR
notes: IgG1-YTE, kappa
With B12, the EC50 was found to be 0.435 nM.

B13: hu3-10 (antibody, human IgG1, kappa, V domains shown)
VH: EVQLVQSGAEVKKPGASVKVSCKASGYTFTDDYMNWVKQAPGQRLEWIGIISPYNGGTSYNQKFKGRATLTVDKSASTAYMELSSLRSEDTAVYYCAREDYDYDGYAMDHWGQGTTVTVSS
VL: EIVLTQSPATLSLSPGERATLSCRASSSVSYMHWYQQKPGQAPRPWIYATSNLASGVPARFSGSGSGTSYTLTISRLEPEDFAVYYCQQWSSNRTFGGGTKVEIKR
notes: IgG1-YTE, kappa
B13 gave an EC50 of 0.388 nM.

B14: hu3-09 (antibody, human IgG1, kappa, V domains shown)
VH: EVQLVQSGAEVKKPGASVKVSCKASGYTFTDDYMNWVKQAPGQRLEWIGIISPYNGGTSYNQKFKGRATLTVDKSASTAYMELSSLRSEDTAVYYCAREDYDYDGYAMDHWGQGTTVTVSS
VL: EIVLTQSPATLSLSPGERATLSCRASSSVSYMHWYQQKPGQAPRPWIYATSNLASGVPARFSGSGSGTDYTLTISRLEPEDFAVYYCQQWSSNRTFGGGTKVEIKR
notes: IgG1-YTE, kappa
B14 showed an EC50 of 0.494 nM.

B15: hu3-12 (antibody, human IgG1, kappa, V domains shown)
VH: EVQLVQSGAEVKKPGASVKVSCKASGYTFTDDYMNWVRQAPGQRLEWMGIISPYNGGTSYNQKFKGRVTLTVDKSASTAYMELSSLRSEDTAVYYCAREDYDYDGYAMDYWGQGTTVTVSS
VL: EIVLTQSPATLSLSPGERATLSCRASSSVSYMHWYQQKPGQAPRPWIYATSNLASGVPARFSGSGSGTSYTLTISRLEPEDFAVYYCQQSDNVRGFGGGTKVEIKR
notes: IgG1-YTE, kappa; also called hu3VH2-H110Y + hu3VL5
B15 yielded an EC50 of 0.152 nM.

B16: hu3-02 (antibody, human IgG1, kappa, V domains shown)
VH: EVQLVQSGAEVKKPGASVKVSCKASGYTFTDDYMNWVRQAPGQRLEWMGIISPYNGGTSYNQKFKGRVTITRDTSASTAYMELSSLRSEDTAVYYCAREDYDYDGYAMDHWGQGTTVTVSS
VL: EIVLTQSPATLSLSPGERATLSCRASSSVSYMHWYQQKPGQAPRPWIYATSNLASGVPARFSGSGSGTDYTLTISRLEPEDFAVYYCQQWSSNRTFGGGTKVEIKR
notes: IgG1-YTE, kappa
As for B16, the EC50 was 0.628 nM.

For orientation: EC50 means the concentration giving half of the maximal effect. The low end stands for greater potency, the high end for weaker potency.
